Results published in patent publication US8673848 (Novartis, dated 2014).
Bridges are numbered along the chain shown (N, C = ends). [ ]: non-standard residue; d: D form. The star is where a group is joined. Bip = N[C@@H](Cc1ccc(-c2ccccc2)cc1)C(=O)O; pGlu = O=C1CC[C@@H](C(=O)O)N1; Lauroyl = CCCCCCCCCCCC(=O)*; Nle = CCCC[C@H](N)C(=O)O; Orn = NCCC[C@H](N)C(=O)O; Dab = NCC[C@H](N)C(=O)O

T1: human APJ receptor (hAPJ) (human, UniProt P35414 1-380)
T1 sequence (looked up): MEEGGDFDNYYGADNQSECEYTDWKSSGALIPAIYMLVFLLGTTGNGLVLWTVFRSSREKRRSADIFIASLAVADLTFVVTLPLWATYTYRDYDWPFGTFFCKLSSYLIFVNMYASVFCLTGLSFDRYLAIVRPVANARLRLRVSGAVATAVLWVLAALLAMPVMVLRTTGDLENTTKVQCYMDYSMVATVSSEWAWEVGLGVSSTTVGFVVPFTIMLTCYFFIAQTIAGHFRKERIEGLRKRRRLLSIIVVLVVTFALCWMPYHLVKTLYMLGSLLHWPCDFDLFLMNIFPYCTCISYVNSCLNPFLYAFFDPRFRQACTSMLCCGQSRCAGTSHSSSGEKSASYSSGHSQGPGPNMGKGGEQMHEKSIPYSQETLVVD

B1: Example 34: pE-R-K-R-L-C-H-K-G-P-Nle-C-F-OH (peptide)
peptide: [pGlu]RKRLCHKGP[Nle]CF-OH
modifications: disulfide 6-12
SMILES: CCCC[C@@H]1NC(=O)[C@@H]2CCCN2C(=O)CNC(=O)[C@H](CCCCN)NC(=O)[C@H](Cc2c[nH]cn2)NC(=O)[C@@H](NC(=O)[C@H](CC(C)C)NC(=O)[C@H](CCCNC(=N)N)NC(=O)[C@H](CCCCN)NC(=O)[C@H](CCCNC(=N)N)NC(=O)[C@@H]2CCC(=O)N2)CSSC[C@@H](C(=O)N[C@@H](Cc2ccccc2)C(=O)O)NC1=O
B2: Example 29: pE-R-C-R-L-C-C-K-G-P-Nle-C-F-OH (peptide)
peptide: [pGlu]RCRLCCKGP[Nle]CF-OH
modifications: disulfide 6-12, 3-7
B3: Example 33: pE-R-p-R-L-C-H-K-G-P-Nle-C-F-OH (peptide)
peptide: [pGlu]R[dP]RLCHKGP[Nle]CF-OH
modifications: disulfide 6-12
SMILES: CCCC[C@@H]1NC(=O)[C@@H]2CCCN2C(=O)CNC(=O)[C@H](CCCCN)NC(=O)[C@H](Cc2c[nH]cn2)NC(=O)[C@@H](NC(=O)[C@H](CC(C)C)NC(=O)[C@H](CCCNC(=N)N)NC(=O)[C@H]2CCCN2C(=O)[C@H](CCCNC(=N)N)NC(=O)[C@@H]2CCC(=O)N2)CSSC[C@@H](C(=O)N[C@@H](Cc2ccccc2)C(=O)O)NC1=O
B4: Example 32: pE-E-P-R-L-C-H-K-G-P-Nle-C-F-OH (peptide)
peptide: [pGlu]EPRLCHKGP[Nle]CF-OH
modifications: disulfide 6-12
SMILES: CCCC[C@@H]1NC(=O)[C@@H]2CCCN2C(=O)CNC(=O)[C@H](CCCCN)NC(=O)[C@H](Cc2c[nH]cn2)NC(=O)[C@@H](NC(=O)[C@H](CC(C)C)NC(=O)[C@H](CCCNC(=N)N)NC(=O)[C@@H]2CCCN2C(=O)[C@H](CCC(=O)O)NC(=O)[C@@H]2CCC(=O)N2)CSSC[C@@H](C(=O)N[C@@H](Cc2ccccc2)C(=O)O)NC1=O
B5: Example 28: pE-R-P-C-L-C-C-K-G-P-Nle-C-F-OH (peptide)
peptide: [pGlu]RPCLCCKGP[Nle]CF-OH
modifications: disulfide 6-12, 4-7
B6: Example 30: pE-r-P-R-L-C-H-K-G-P-Nle-C-F-OH (peptide)
peptide: [pGlu][dR]PRLCHKGP[Nle]CF-OH
modifications: disulfide 6-12
SMILES: CCCC[C@@H]1NC(=O)[C@@H]2CCCN2C(=O)CNC(=O)[C@H](CCCCN)NC(=O)[C@H](Cc2c[nH]cn2)NC(=O)[C@@H](NC(=O)[C@H](CC(C)C)NC(=O)[C@H](CCCNC(=N)N)NC(=O)[C@@H]2CCCN2C(=O)[C@@H](CCCNC(=N)N)NC(=O)[C@@H]2CCC(=O)N2)CSSC[C@@H](C(=O)N[C@@H](Cc2ccccc2)C(=O)O)NC1=O
B7: Example 35: pE-R-D-R-L-C-H-K-G-P-Nle-C-F-OH (peptide)
peptide: [pGlu]RDRLCHKGP[Nle]CF-OH
modifications: disulfide 6-12
SMILES: CCCC[C@@H]1NC(=O)[C@@H]2CCCN2C(=O)CNC(=O)[C@H](CCCCN)NC(=O)[C@H](Cc2c[nH]cn2)NC(=O)[C@@H](NC(=O)[C@H](CC(C)C)NC(=O)[C@H](CCCNC(=N)N)NC(=O)[C@H](CC(=O)O)NC(=O)[C@H](CCCNC(=N)N)NC(=O)[C@@H]2CCC(=O)N2)CSSC[C@@H](C(=O)N[C@@H](Cc2ccccc2)C(=O)O)NC1=O
B8: Example 27: pE-R-P-R-L-C-K(Lauroyl)-K-G-P-Nle-C-F-OH (peptide)
peptide: [pGlu]RPRLCK(Lauroyl)KGP[Nle]CF-OH
modifications: disulfide 6-12
SMILES: CCCCCCCCCCCC(=O)NCCCC[C@@H]1NC(=O)[C@@H](NC(=O)[C@H](CC(C)C)NC(=O)[C@H](CCCNC(=N)N)NC(=O)[C@@H]2CCCN2C(=O)[C@H](CCCNC(=N)N)NC(=O)[C@@H]2CCC(=O)N2)CSSC[C@@H](C(=O)N[C@@H](Cc2ccccc2)C(=O)O)NC(=O)[C@H](CCCC)NC(=O)[C@@H]2CCCN2C(=O)CNC(=O)[C@H](CCCCN)NC1=O
B9: Example 36: pE-R-P-F-L-C-H-K-G-P-Nle-C-F-OH (peptide)
peptide: [pGlu]RPFLCHKGP[Nle]CF-OH
modifications: disulfide 6-12
SMILES: CCCC[C@@H]1NC(=O)[C@@H]2CCCN2C(=O)CNC(=O)[C@H](CCCCN)NC(=O)[C@H](Cc2c[nH]cn2)NC(=O)[C@@H](NC(=O)[C@H](CC(C)C)NC(=O)[C@H](Cc2ccccc2)NC(=O)[C@@H]2CCCN2C(=O)[C@H](CCCNC(=N)N)NC(=O)[C@@H]2CCC(=O)N2)CSSC[C@@H](C(=O)N[C@@H](Cc2ccccc2)C(=O)O)NC1=O
B10: Example 41: pE-R-P-R-(4-PhF)-C-H-K-G-P-Nle-C-F-OH (peptide)
peptide: [pGlu]RPR[Bip]CHKGP[Nle]CF-OH
modifications: disulfide 6-12
SMILES: CCCC[C@@H]1NC(=O)[C@@H]2CCCN2C(=O)CNC(=O)[C@H](CCCCN)NC(=O)[C@H](Cc2c[nH]cn2)NC(=O)[C@@H](NC(=O)[C@H](Cc2ccc(-c3ccccc3)cc2)NC(=O)[C@H](CCCNC(=N)N)NC(=O)[C@@H]2CCCN2C(=O)[C@H](CCCNC(=N)N)NC(=O)[C@@H]2CCC(=O)N2)CSSC[C@@H](C(=O)N[C@@H](Cc2ccccc2)C(=O)O)NC1=O
B11: Example 40: pE-R-P-E-L-C-H-K-G-P-Nle-C-F-OH (peptide)
peptide: [pGlu]RPELCHKGP[Nle]CF-OH
modifications: disulfide 6-12
SMILES: CCCC[C@@H]1NC(=O)[C@@H]2CCCN2C(=O)CNC(=O)[C@H](CCCCN)NC(=O)[C@H](Cc2c[nH]cn2)NC(=O)[C@@H](NC(=O)[C@H](CC(C)C)NC(=O)[C@H](CCC(=O)O)NC(=O)[C@@H]2CCCN2C(=O)[C@H](CCCNC(=N)N)NC(=O)[C@@H]2CCC(=O)N2)CSSC[C@@H](C(=O)N[C@@H](Cc2ccccc2)C(=O)O)NC1=O
B12: Example 26: pE-R-P-R-L-C-H-K-G-P-Nle-C-K(Lauroyl)-OH (peptide)
peptide: [pGlu]RPRLCHKGP[Nle]CK(Lauroyl)-OH
modifications: disulfide 6-12
SMILES: CCCCCCCCCCCC(=O)NCCCC[C@H](NC(=O)[C@@H]1CSSC[C@H](NC(=O)[C@H](CC(C)C)NC(=O)[C@H](CCCNC(=N)N)NC(=O)[C@@H]2CCCN2C(=O)[C@H](CCCNC(=N)N)NC(=O)[C@@H]2CCC(=O)N2)C(=O)N[C@@H](Cc2c[nH]cn2)C(=O)N[C@@H](CCCCN)C(=O)NCC(=O)N2CCC[C@H]2C(=O)N[C@@H](CCCC)C(=O)N1)C(=O)O
B13: Example 4: pE-R-P-R-L-Dab-H-F-G-P-Nle-D-Phenethylamine (peptide)
peptide: [pGlu]RPRL[Dab]HFGP[Nle]D-Phenethylamine
modifications: lactam 6-12
B14: Example 3: pE-R-P-R-L-Orn-H-F-G-P-Nle-D-Phenethylamine (peptide)
peptide: [pGlu]RPRL[Orn]HFGP[Nle]D-Phenethylamine
modifications: lactam 6-12
B15: Example 39: pE-R-P-R-L-C-H-K-D-P-Nle-C-F-OH (peptide)
peptide: [pGlu]RPRLCHKDP[Nle]CF-OH
modifications: disulfide 6-12
SMILES: CCCC[C@@H]1NC(=O)[C@@H]2CCCN2C(=O)[C@H](CC(=O)O)NC(=O)[C@H](CCCCN)NC(=O)[C@H](Cc2c[nH]cn2)NC(=O)[C@@H](NC(=O)[C@H](CC(C)C)NC(=O)[C@H](CCCNC(=N)N)NC(=O)[C@@H]2CCCN2C(=O)[C@H](CCCNC(=N)N)NC(=O)[C@@H]2CCC(=O)N2)CSSC[C@@H](C(=O)N[C@@H](Cc2ccccc2)C(=O)O)NC1=O
B16: Example 37: pE-R-P-R-K-C-H-K-G-P-Nle-C-F-OH (peptide)
peptide: [pGlu]RPRKCHKGP[Nle]CF-OH
modifications: disulfide 6-12
SMILES: CCCC[C@@H]1NC(=O)[C@@H]2CCCN2C(=O)CNC(=O)[C@H](CCCCN)NC(=O)[C@H](Cc2c[nH]cn2)NC(=O)[C@@H](NC(=O)[C@H](CCCCN)NC(=O)[C@H](CCCNC(=N)N)NC(=O)[C@@H]2CCCN2C(=O)[C@H](CCCNC(=N)N)NC(=O)[C@@H]2CCC(=O)N2)CSSC[C@@H](C(=O)N[C@@H](Cc2ccccc2)C(=O)O)NC1=O
B17: Example 42: pE-R-P-R-D-C-H-K-G-P-Nle-C-F-OH (peptide)
peptide: [pGlu]RPRDCHKGP[Nle]CF-OH
modifications: disulfide 6-12
SMILES: CCCC[C@@H]1NC(=O)[C@@H]2CCCN2C(=O)CNC(=O)[C@H](CCCCN)NC(=O)[C@H](Cc2c[nH]cn2)NC(=O)[C@@H](NC(=O)[C@H](CC(=O)O)NC(=O)[C@H](CCCNC(=N)N)NC(=O)[C@@H]2CCCN2C(=O)[C@H](CCCNC(=N)N)NC(=O)[C@@H]2CCC(=O)N2)CSSC[C@@H](C(=O)N[C@@H](Cc2ccccc2)C(=O)O)NC1=O
B18: Example 31: pE-F-P-R-L-C-H-K-G-P-Nle-C-F-OH (peptide)
peptide: [pGlu]FPRLCHKGP[Nle]CF-OH
modifications: disulfide 6-12
SMILES: CCCC[C@@H]1NC(=O)[C@@H]2CCCN2C(=O)CNC(=O)[C@H](CCCCN)NC(=O)[C@H](Cc2c[nH]cn2)NC(=O)[C@@H](NC(=O)[C@H](CC(C)C)NC(=O)[C@H](CCCNC(=N)N)NC(=O)[C@@H]2CCCN2C(=O)[C@H](Cc2ccccc2)NC(=O)[C@@H]2CCC(=O)N2)CSSC[C@@H](C(=O)N[C@@H](Cc2ccccc2)C(=O)O)NC1=O
B19: Example 38: pE-R-P-R-L-C-H-E-G-P-Nle-C-F-OH (peptide)
peptide: [pGlu]RPRLCHEGP[Nle]CF-OH
modifications: disulfide 6-12
SMILES: CCCC[C@@H]1NC(=O)[C@@H]2CCCN2C(=O)CNC(=O)[C@H](CCC(=O)O)NC(=O)[C@H](Cc2c[nH]cn2)NC(=O)[C@@H](NC(=O)[C@H](CC(C)C)NC(=O)[C@H](CCCNC(=N)N)NC(=O)[C@@H]2CCCN2C(=O)[C@H](CCCNC(=N)N)NC(=O)[C@@H]2CCC(=O)N2)CSSC[C@@H](C(=O)N[C@@H](Cc2ccccc2)C(=O)O)NC1=O

target: T1, human APJ receptor (hAPJ); test: cell-based or functional assay

| Binder | hAPJ Ca2+ Flux EC50 [nM] |
| --- | --- |
| B1 | 3.21 |
| B2 | 4.33 |
| B3 | 8.1 |
| B4 | 518 |
| B5 | 5.68 |
| B6 | 6.05 |
| B7 | 11.1 |
| B8 | 65.5 |
| B9 | 7.36 |
| B10 | 6.91 |
| B11 | 7.99 |
| B12 | 29.8 |
| B13 | 747 |
| B14 | 1010 |
| B15 | 8.2 |
| B16 | 1.4 |
| B17 | 92.8 |
| B18 | 84.1 |
| B19 | 182 |
